The record followed here is paper PMC6168597, “Mutations at the hydrophobic core affect Hal3 trimer stability, reducing its Ppz1 inhibitory capacity but not its PPCDC moonlighting function” (Scientific Reports, 2018).

Where a chain is given by its changes, count along the chain named. In names and notes the source's numbering stands.

To fix the notation:
T1: GST-fused full length Ppz1 (S. cerevisiae, UniProt P26570 1-692)
T1 construct: Ser/Thr protein phosphatase Ppz1, S. cerevisiae, full length; also called GST-Ppz1; source: E. coli BL21 (DE3) RIL, purified on glutathione-agarose
T1 sequence (looked up): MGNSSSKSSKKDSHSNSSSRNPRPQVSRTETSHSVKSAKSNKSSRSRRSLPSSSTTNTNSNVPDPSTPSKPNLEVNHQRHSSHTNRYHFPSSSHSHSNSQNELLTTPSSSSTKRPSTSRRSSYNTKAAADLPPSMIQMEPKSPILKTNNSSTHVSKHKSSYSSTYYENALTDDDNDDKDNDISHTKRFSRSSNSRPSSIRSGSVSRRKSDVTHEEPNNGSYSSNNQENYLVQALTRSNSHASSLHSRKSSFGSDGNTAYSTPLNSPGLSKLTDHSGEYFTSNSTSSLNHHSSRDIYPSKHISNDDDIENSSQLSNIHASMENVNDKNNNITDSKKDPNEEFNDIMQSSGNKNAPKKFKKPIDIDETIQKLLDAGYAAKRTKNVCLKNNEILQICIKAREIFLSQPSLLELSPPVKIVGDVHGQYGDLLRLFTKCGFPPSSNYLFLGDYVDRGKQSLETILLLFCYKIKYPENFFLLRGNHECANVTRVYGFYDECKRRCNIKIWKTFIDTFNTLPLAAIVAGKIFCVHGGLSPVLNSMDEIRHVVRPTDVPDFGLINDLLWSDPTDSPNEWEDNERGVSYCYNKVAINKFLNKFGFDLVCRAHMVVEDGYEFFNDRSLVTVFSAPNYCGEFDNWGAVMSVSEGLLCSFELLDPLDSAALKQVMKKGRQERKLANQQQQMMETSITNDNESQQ

B1: S. cerevisiae Hal3 (ScHal3), native, recombinant, GST removed (natural protein, UniProt P36024 1-562, looked up)
chain: MTAVASTSGKQDADHNQSIECPRFSRGQKEILLDHEDAKGKDSIINSPVSGRQSISPTLSNATTTTTKSIMNATGTSGAVVSNTPEPGLKRVPAVTFSDLKQQQKQDSLTQLKNDSERTKSPNSNPAPVSNSIPGNHAVIPNHTNTSRTTQLSGSPLVNEMKDYDPKKKDSALKIVDTMKPDKIMATSTPISRENNKVTAKAPTSITLRKEDAQDQANNVSGQINVRSTPEETPVKQSVIPSIIPKRENSKNLDPRLPQDDGKLHVLFGATGSLSVFKIKPMIKKLEEIYGRDRISIQVILTQSATQFFEQRYTKKIIKSSEKLNKMSQYESTPATPVTPTPGQCNMAQVVELPPHIQLWTDQDEWDAWKQRTDPVLHIELRRWADILVVAPLTANTLSKIALGLCDNLLTSVIRAWNPSYPILLAPSMVSSTFNSMMTKKQLQTIKEEMSWVTVFKPSEKVMDINGDIGLGGMMDWNEIVNKIVMKLGGYPKNNEEEDDDEDEEEDDDEEEDTEDKNENNNDDDDDDDDDDDDDDDDDDDDDDDDEDEDEAETPGIIDKHQ
notes: the methods speak of 'each full-length recombinant protein' and the predicted homotrimer is ~190 kDa; also called native ScHal3; WT; source: E. coli BL21 (DE3) RIL, GST fusion purified on glutathione-agarose, GST cleaved with PreScission protease
B2: ScHal3 L403N, recombinant, GST removed (natural protein, S. cerevisiae, UniProt P36024 1-562, looked up)
chain: B1 chain with L403N
notes: Hal3 (Sis2), S. cerevisiae, in pGEX-6P-1 with L403N; also called the L403 variant; source: E. coli BL21 (DE3) RIL, GST fusion purified on glutathione-agarose, GST cleaved with PreScission protease
B3: Arabidopsis thaliana Hal3 (AtHal3a), native, recombinant, GST removed (enzyme, UniProt Q9SWE5 1-209, looked up)
chain: MENGKRDRQDMEVNTTPRKPRVLLAASGSVAAIKFGNLCHCFTEWAEVRAVVTKSSLHFLDKLSLPQEVTLYTDEDEWSSWNKIGDPVLHIELRRWADVLVIAPLSANTLGKIAGGLCDNLLTCIIRAWDYTKPLFVAPAMNTLMWNNPFTERHLLSLDELGITLIPPIKKRLACGDYGNGAMAEPSLIYSTVRLFWESQAHQQTGGTS
notes: AtHal3a, Arabidopsis thaliana, wild type ORF amplified from the AtHal3a cDNA and cloned into pGEX-6P-1; Flavoprotein (FMN); Theoretical mass of the trimer ~69 kDa; also called native AtHal3; source: E. coli BL21 (DE3) RIL, GST fusion purified on glutathione-agarose, GST cleaved with PreScission protease
B4: AtHal3 G115N L117E, recombinant, GST removed (enzyme, Arabidopsis thaliana, UniProt Q9SWE5 1-209, looked up)
chain: B3 chain with G115N, L117E
notes: AtHal3a, Arabidopsis thaliana, ORF in pGEX-6P-1 with G115N and L117E; source: E. coli BL21 (DE3) RIL, GST fusion purified on glutathione-agarose, GST cleaved with PreScission protease
B5: AtHal3 L117E, recombinant, GST removed (enzyme, Arabidopsis thaliana, UniProt Q9SWE5 1-209, looked up)
chain: B3 chain with L117E
notes: AtHal3a, Arabidopsis thaliana, ORF in pGEX-6P-1 with L117E; source: E. coli BL21 (DE3) RIL, GST fusion purified on glutathione-agarose, GST cleaved with PreScission protease
B6: HA-tagged ScHal3 L403N L405E expressed in S. cerevisiae from pWS93 (natural protein, UniProt P36024 1-562, looked up)
chain: B1 chain with L403N, L405E
notes: Hal3 (Sis2), S. cerevisiae, with L403N and L405E; insert released from the pGEX construct and cloned into pWS93; also called the double mutated variant; source: S. cerevisiae IM021 (ppz1 hal3), expressed from pWS93, in protein extract
B7: HA-tagged ScHal3 L405E expressed in S. cerevisiae from pWS93 (natural protein, UniProt P36024 1-562, looked up)
chain: B1 chain with L405E
notes: Hal3 (Sis2), S. cerevisiae, with L405E; insert released from the pGEX construct and cloned into pWS93; source: S. cerevisiae IM021 (ppz1 hal3), expressed from pWS93, in protein extract

One data set concerns the molecule itself. Briefly: cross-linking; purified GST-free proteins (1 or 2 ug) treated with 0.01% glutaraldehyde, SDS-PAGE, Coomassie staining.
Details: not given
B1: the “stoichiometry N” value turned out to be 3.

In the case of B2, the “stoichiometry N” value was 3.

Regarding B3, the “stoichiometry N” value worked out at 3.

For B4, the “stoichiometry N” value came to 3.

On to B5, for which the “stoichiometry N” value was found to be 3.

The target of a further data set is T1, GST-fused full length Ppz1. Briefly: pull-down; 4 ug GST-Ppz1 or GST-Ppz1-Cter on glutathione-agarose beads, 600 ug protein extract of IM021 yeast expressing HA-tagged ScHal3 versions, anti-HA immunoblot; signal related to Ponceau-stained bait, native ScHal3 as the unit. As to conditions: one partner purified. (In western blotting, separated proteins are transferred to a membrane and probed.)
For the molecule B6, the “interaction relative to native ScHal3” value is about 50%.

For the molecule B7, the “interaction relative to native ScHal3” value was about 50%.

One may read the stoichiometry N as the number of molecules, sites or subunits per partner or assembly.
